According to IntAct's records for PubMed 30545121:

B1: Ribosome maturation protein SBDS (Homo sapiens), Q9Y3A5 (parent)
chain: MSIFTPTNQIRLTNVAVVRMKRAGKRFEIACYKNKVVGWRSGVEKDLDEVLQTHSVFVNVSKGQVAKKEDLISAFGTDDQTEICKQILTKGEVQVSDKERHTQLEQMFRDIATIVADKCVNPETKRPYTVILIERAMKDIHYSVKTNKSTKQQALEVIKQLKEKMKIERAHMRLRFILPVNEGKKLKEKLKPLIKVIESEDYGQQLEIVCLIDPGCFREIDELIKKETKGKGSLEVLNLKDVEEGDEKFE
partner: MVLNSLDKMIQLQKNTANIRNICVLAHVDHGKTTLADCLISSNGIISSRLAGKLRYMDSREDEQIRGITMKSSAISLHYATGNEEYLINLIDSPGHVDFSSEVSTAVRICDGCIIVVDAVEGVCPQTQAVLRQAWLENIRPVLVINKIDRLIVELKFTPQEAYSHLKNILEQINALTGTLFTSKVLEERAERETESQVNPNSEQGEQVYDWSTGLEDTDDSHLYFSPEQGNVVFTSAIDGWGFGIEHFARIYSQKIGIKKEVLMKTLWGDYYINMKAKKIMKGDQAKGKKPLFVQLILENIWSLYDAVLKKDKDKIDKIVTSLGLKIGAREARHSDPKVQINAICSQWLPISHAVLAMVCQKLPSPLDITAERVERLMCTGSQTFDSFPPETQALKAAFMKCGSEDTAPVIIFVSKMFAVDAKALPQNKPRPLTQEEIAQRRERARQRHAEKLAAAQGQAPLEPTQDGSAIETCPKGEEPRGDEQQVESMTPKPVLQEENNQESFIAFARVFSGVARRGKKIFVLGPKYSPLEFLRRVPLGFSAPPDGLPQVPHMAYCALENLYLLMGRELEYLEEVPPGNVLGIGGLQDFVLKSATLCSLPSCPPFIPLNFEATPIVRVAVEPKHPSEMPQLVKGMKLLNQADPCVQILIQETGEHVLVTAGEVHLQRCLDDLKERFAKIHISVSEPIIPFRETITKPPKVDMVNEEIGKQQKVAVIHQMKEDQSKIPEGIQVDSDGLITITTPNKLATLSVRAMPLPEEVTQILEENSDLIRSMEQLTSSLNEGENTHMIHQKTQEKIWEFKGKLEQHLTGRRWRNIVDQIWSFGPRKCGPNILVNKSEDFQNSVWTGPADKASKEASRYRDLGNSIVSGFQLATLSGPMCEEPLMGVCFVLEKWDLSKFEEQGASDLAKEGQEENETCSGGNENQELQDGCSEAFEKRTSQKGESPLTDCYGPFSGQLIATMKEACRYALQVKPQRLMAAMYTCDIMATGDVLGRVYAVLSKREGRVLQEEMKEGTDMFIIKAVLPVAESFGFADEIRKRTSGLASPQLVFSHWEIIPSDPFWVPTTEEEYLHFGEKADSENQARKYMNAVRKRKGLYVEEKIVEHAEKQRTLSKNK

Variants of: B1
Conditions: with efl1_human EFL1, Q7Z2Z2

Variant	effect of a mutation on the interaction
R126T	decreasing interaction strength
R19Q	decreasing interaction strength
K67E	decreasing interaction strength

The remaining lines, values ahead:

effect of a mutation on the interaction	Variant
disrupting interaction strength	I212T
disrupting interaction strength	S143L
decreasing interaction strength	I167T
decreasing interaction strength	R175W
